Laboratory results from patent publication US20160244527A1 (AFFITECH RESEARCH, published 2016).

B1: 9N10 IgG1 (antibody, V domains shown)
VH: QVQLQESGGGLVHPGGSLRLSCAASGFTFSSYWMHWVRQAPGKGLVWVSRINSDGSSTSYADSVKGRFTISRDNAKNTLYLQMNSLRAEDTAVYYCARKILGVGARSRRYFDYWGQGTMVTVSS
VL: DIVLTQTPDSLAVSLGETTTINCKSSQSVLHSSNNKNYLAWYQQKPGQPPKLLIYWASTRESGVPDRFSGSGSGTDFTLTISNLQPEDVAFYYCLQYSTFPRTFGQGTKVEIKR
notes: Full length human IgG1 with kappa light chain
B2: C-9P21 IgG1 (antibody, V domains shown)
VH: B1 VH
VL: ETTLTQSPGTLSLSPGERATLSCRASQSVVSNYLAWYQQKPGQAPRLLISGASNRATGISDRFSGSGSGADFTLTISRVEPEDSAVYYCQQFDKSTWTFGQGTKVEIKR
notes: Full length human IgG1 with kappa light chain; expressed from pLNO, protein A purified, monomer by SEC; also called IgG C-9P21
B3: C-9P21 scFv (scFv)
scFv: QVQLQESGGGLVHPGGSLRLSCAASGFTFSSYWMHWVRQAPGKGLVWVSRINSDGSSTSYADSVKGRFTISRDNAKNTLYLQMNSLRAEDTAVYYCARKILGVGARSRRYFDYWGQGTMVTVSSKLSGSASAPKLEEGEFSEARVETTLTQSPGTLSLSPGERATLSCRASQSVVSNYLAWYQQKPGQAPRLLISGASNRATGISDRFSGSGSGADFTLTISRVEPEDSAVYYCQQFDKSTWTFGQGTKVEIKAAAGSEQKLISEEDLNSHHHHHH
notes: VH-linker-VL scFv expressed in E. coli TG1 from pHOG21; In the migration and ADCC assays it was cross-linked with anti-cMyc antibody; also called scFv C-9P21
B4: B-1M22 IgG1 (antibody, V domains shown)
VH: QVQLVQSGAEVKKPGSSVKVSCKASGGTFSSYAISWVRQAPGQGLEWMGGIIPIFGTANYAQKFQGRVTITADESTSTAYMELRSLRSDDTAVYYCARDRERWLQSAGDYWGQGTLVTVSS
VL: QPVLTQSPSVSVAPGQTARITCGGNNIGSKSVHWYQQKPGQAPVLVVYDDSDRPSGIPERFSGSNSGNTATLTISRVEAGDEADYYCQVWDSSSDHWVFGGGTKLTVLG
notes: Full length human IgG1 with lambda light chain; expressed from pLNO, protein A purified, monomer by SEC; also called IgG B-1M22
B5: C-1I24 IgG1 (antibody, V domains shown)
VH: QVQLVQSGGGVVQPGRSLRLSCAASGFTFSSYGMHWVRQAPGKGLEWVAVISYDGSNKYYADSVKGRFTISRDNSKNTLYLQMNSLRAEDTAVYYCAKDLPITRGTGADYWGQGTLVTVSS
VL: QSVLIQPASVSGSPGQSITISCTGTSSDVGGYNYVSWYQQHPGKAPRLMIYDVTSRPSGVSNRFSGSKSGNTASLTISGLQAEDEADYYCSSYAGSYSVVFGGGTKVTVLG
notes: Full length human IgG1 with lambda light chain; expressed from pLNO, protein A purified, monomer by SEC; also called IgG C-1I24; C-1124
B6: D-1K21 IgG1 (antibody, V domains shown)
VH: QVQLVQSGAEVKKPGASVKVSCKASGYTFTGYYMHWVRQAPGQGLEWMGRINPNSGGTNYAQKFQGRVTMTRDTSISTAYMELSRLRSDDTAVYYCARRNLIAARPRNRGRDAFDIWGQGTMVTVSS
VL: DIQMTQSPSTLSASVGDRVTITCRASQSIGGSLAWYQQKPGKGPNLLIYAASTLQSGVPSRFSGSGSGTEFTLTISSLQPEDSATYYCQHYESYPLSFGGGTKLEIKR
notes: Full length human IgG1 with kappa light chain; expressed from pLNO, protein A purified, monomer by SEC; also called IgG D-1K21
B7: C-1I24 scFv (scFv)
scFv: QVQLVQSGGGVVQPGRSLRLSCAASGFTFSSYGMHWVRQAPGKGLEWVAVISYDGSNKYYADSVKGRFTISRDNSKNTLYLQMNSLRAEDTAVYYCAKDLPITRGTGADYWGQGTLVTVSSKLSGSASAPKLEEGEFSEARVQSVLIQPASVSGSPGQSITISCTGTSSDVGGYNYVSWYQQHPGKAPRLMIYDVTSRPSGVSNRFSGSKSGNTASLTISGLQAEDEADYYCSSYAGSYSVVFGGGTKVTVLAAAGSEQKLISEEDLNSHHHHHH
notes: VH-linker-VL scFv expressed in E. coli TG1 from pHOG21; also called scFv C-1I24; C-1124
B8: B-1M22 scFv (scFv)
scFv: QVQLVQSGAEVKKPGSSVKVSCKASGGTFSSYAISWVRQAPGQGLEWMGGIIPIFGTANYAQKFQGRVTITADESTSTAYMELRSLRSDDTAVYYCARDRERWLQSAGDYWGQGTLVTVSSKLSGSASAPKLEEGEFSEARVQPVLTQSPSVSVAPGQTARITCGGNNIGSKSVHWYQQKPGQAPVLVVYDDSDRPSGIPERFSGSNSGNTATLTISRVEAGDEADYYCQVWDSSSDHWVFGGGTKLTVLAAAGSEQKLISEEDLNSHHHHHH
notes: VH-linker-VL scFv expressed in E. coli TG1 from pHOG21; also called scFv B-1M22

Tests used:
[1] = target: T1, CXC chemokine receptor 4 (CXCR4), human (human, UniProt P61073 1-352); assay: cell-based or functional assay
T1 sequence (P61073 whole entry): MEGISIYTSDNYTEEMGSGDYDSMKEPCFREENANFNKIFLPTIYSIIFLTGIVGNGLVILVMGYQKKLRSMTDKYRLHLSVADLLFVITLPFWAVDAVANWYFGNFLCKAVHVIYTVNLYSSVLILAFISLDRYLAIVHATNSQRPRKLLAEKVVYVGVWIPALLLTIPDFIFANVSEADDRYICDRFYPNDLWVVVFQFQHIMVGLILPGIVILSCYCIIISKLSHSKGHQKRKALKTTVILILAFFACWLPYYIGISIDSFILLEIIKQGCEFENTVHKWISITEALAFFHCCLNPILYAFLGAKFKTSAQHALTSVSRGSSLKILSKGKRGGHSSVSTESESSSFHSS

[2] = target: T1, CXC chemokine receptor 4 (CXCR4), human; assay: EasyCyte flow cytometry, IgG titration (12 points, three-fold) on Ramos cells naturally expressing CXCR4; RPE goat anti-human IgG detection
Protocol: The cells were harvested from culture flasks, washed 2 times with PBS (350×g, 5 min, 4° C.) and resuspended in PBS containing 0.2% BSA and 0.09% NaN₃. 1×10⁵ cells per well were aliquoted into V-shaped 96-well plates (Greiner Bio-One, Frikenhausen, Germany). The cells were centrifuged (350×g, 5 min, 4° C.) and resuspended in 50 μl IgG (50 μg/ml) in PBS containing 0.2% BSA and 0.09% NaN₃. Titration was done in twelve points and three fold dilution. […] Cells were washed, resuspended in 200 μl PBS with 0.2% BSA and 0.09% NaN₃, and transferred to a U-shaped 96 well Costar (Corning, Schiphol-Rijik, The Netherlands) plate for flow cytometry using an Easy Cyte device (Guava Technologies, Hayward, Calif., USA).

[3] = target: T1, CXC chemokine receptor 4 (CXCR4), human; assay: cell-based or functional assay; remark: listed apart in the source
[4] = target: T1, CXC chemokine receptor 4 (CXCR4), human; assay: flow cytometry (EasyCyte), IgG1 10 µg/ml on CCRF-CEM cells; PBS negative control 3.11
Protocol: The natural CXCR4⁺ expressing cell line CCRF-CEM was harvested from the culture flasks, washed 2 times with PBS supplemented with 0.2% BSA and 0.09% NaN₃ buffer and aliquoted at 1×10⁵ cells per well into V-shaped 96-well plates (Greiner Bio-One, Frickenhausen, Germany). Cells were pelleted by centrifugation (400 g, 5 min) and then incubated for 60 min at 4° C. with 50 μl IgGs diluted to 10 μg/ml in PBS supplemented with 0.2% BSA and 0.09% NaN₃ buffer. The supernatants were aspirated after a centrifugation step at 400 g for 5 min and the cells were washed another two times with 100 μl PBS supplemented with 0.2% BSA and 0.09% NaN₃ each wash was followed by a centrifugation step (5 min at 400 g). After, the cells were stained for 30 minutes at 4° C. with 50 μl of rPE-conjugated Goat anti-human IgG (AbD Serotec) diluted to 5 μg/ml in with PBS supplemented with 0.2% BSA and 0.09% NaN₃ and incubated for 30 minutes at 4° C. The cells were washed again and re-suspended in 200 μl PBS with 0.2% BSA and 0.09% NaN₃ and transferred to a U-shaped 96-well plate (Corning) for flow cytometry using an EasyCyte device (Guava Technologies, Hayward, Calif., USA).

[5] = target: T2, monkey (Macaca mulatta) CXCR4 (monkey (Macaca mulatta), UniProt P79394 1-352); assay: EasyCyte flow cytometry on HEK293T/17 cells transiently transfected with Macaca mulatta CXCR4, Fugene without DNA as negative control; scFv level according to the example, amount not given
T2 construct: whole, on cells; also called monkey CXCR4; monkey antigen
T2 sequence (P79394 whole entry): as the sequence (P61073 whole entry) above, with M24I, N35H, K38R, R146K, N176S, V214D counted along it
Protocol: FACS-binding analyses (EasyCyte) were performed using HEK-293 cells transiently transfected with plasmids encoding either, mouse (Gene bank accession number BC031665) or monkey (Macaca mulatta) CXCR4 (NCBI Accession number NP_001036110). Two experiments were performed, one using a-cMyc and PE-labelled goat anti-mouse IgG antibody, the second using a directly conjugated RPE-c-Myc antibody for detection. In addition, cross-reactivity on IgG level was analysed. In the latter case, antibody binding was detected with PE-conjugated goat anti-human IgG antibody.

[6] = target: T1, CXC chemokine receptor 4 (CXCR4), human; assay: EasyCyte flow cytometry, 0.5 µg scFv on 1x10^5 CXCR4-transfected versus non-transfected HEK293T cells; anti-cMyc and RPE goat anti-mouse IgG detection
Protocol: The DT40+CXCR4, HEK293+CXCR4, DT40 and HEK293 cells were harvested from culture flasks, washed 2 times with PBS (400×g, 5 min, 4° C.) and resuspended in PBS containing 0.2% BSA and 0.09% NaN₃. 1×10⁵ cells per well were aliquoted into V-shaped 96-well plates (Greiner Bio-One, Frikenhausen, Germany). The cells were centrifuged (400×g, 5 min, 4° C.) and resuspended in 50 μl ScFvs (10 μg/ml) in PBS containing 0.2% BSA and 0.09% NaN₃. […] After 1 hour incubation (4° C.), the cells were washed three times with 100 μl PBS with 0.2% BSA and 0.09% NaN₃ and incubated for 30 minutes at 4° C. with RPE conjugated goat anti-mouse IgG (F0479, Dako, Denmark) diluted to 5 μg/ml in PBS with 0.2% BSA and 0.09% NaN₃. Cells were washed, resuspended in 200 μl PBS with 0.2% BSA and 0.09% NaN₃, and transferred to a U-shaped 96 well Costar (Corning, Schiphol-Rijik, The Netherlands) plate for flow cytometry using an Easy Cyte device (Guava Technologies, Hayward, Calif., USA).

Binder | ADCC, EC50 (ng/mL), IgG [3] [ng/mL] | ADCC, EC50, IgG, molar [3] [nM] | ADCC, Max killing (%), CCRF-CEM cells with human PBMCs, IgG [3] [%] | median value (EasyCyte fluorescence) [4] | binding result [5] | further results
B1 |  |  |  |  |  | IC50 of inhibition of SDF-1α induced calcium flux, CCRF-CEM cells, IgG [1]: 3.85 nM; fold efficiency in inhibition of calcium flux against C-9P21 IgG [1]: ~8 fold; EC50 (read off the curve) [2]: ~10 nM
B2 | 1850 | 12.3 | 63.5 | 626 |  | IC50 of inhibition of SDF-1α induced calcium flux, CCRF-CEM cells, IgG [1]: 29 nM
B3 |  |  |  |  | binds | IC50 of inhibition of SDF-1 induced migration of CCRF-CEM cells (Boyden chamber; scFv cross-linked with anti-cMyc) [1]: 2.9 µg/mL; IC50 of inhibition of ligand induced migration of CCRF-CEM cells, molar [1]: ~100 nM; ADCC, EC50 (ng/mL), scFv cross-linked with chimeric anti-cMyc IgG1 [3]: 2.7 ng/mL; ADCC, EC50, scFv, molar [3]: 0.09 nM
B4 | 116 | 0.8 | 100 | 1080 |  | 
B5 | 49.2 | 0.3 | 65 | 911 |  | CDC of Ramos cells in presence of human serum, EC50, IgG [1]: 0.7 µg/mL
B6 | 79.9 | 0.5 | 25.7 | 179 |  | 
B7 |  |  |  |  | binds | binding result [6]: binds
B8 |  |  |  |  | binds | 
